The values that follow come from patent publication US20170209529A1 (BRIGHAM AND WOMEN S HOSPITAL, published 2017).

The target in assay [1] is T1, soluble human FcRn (shFcRn) (human, UniProt P55899 24-297; P61769 21-119).
T1 construct: For crystallography it was expressed in CHOK1SV cells and deglycosylated with PNGaseF; biotinylated for phage selection; also called hFcRn/β2m; FcRn-biotin
The assay is described as follows: SPR (Biacore), immobilized shFcRn, pH 6, steady-state fit. On the technique in general: Surface plasmon resonance follows binding to a sensor surface in real time, without labels.

Assay [2] concerns the target T1, soluble human FcRn (shFcRn). As to the kind of experiment: SPR (Biacore), immobilized shFcRn, pH 6.
The target is the same in assay [3]. The assay is described as follows: SPR (Biacore), pH 6.0.
Description: SPR analyses: SPR analyses were conducted using a Biacore 3000 or T100 instrument. Research-grade CMS sensor chips and all coupling reagents for immobilization were purchased from Biacore. All proteins were cross-linked to the dextran surface of a CM5 sensor chip by standard amine coupling chemistry as recommended by Biacore. […] Binding experiments were performed at pH 6.0 or 7.4 using 50 mM phosphate, 100 mM sodium chloride and 0.01% surfactant P20. […] Bound albumin protein was then allowed to dissociate from the chip for 5 minutes with running buffer. Any remaining albumin was removed from the chip with a 60 second injection (2 cycles) of pH 8.0 Tris-HCl regeneration buffer (1 M Tris pH 8.0) at 25 μL/min flow rate. The binding responses recorded near the end of the association phase were plotted as a function of concentration. Equilibrium dissociation constants (KD), were derived from sensorgrams using the 1:1 binding model of BlAevaluation software 4.1.
The target is the same in assay [4]. As to the kind of experiment: SPR (Biacore), immobilized shFcRn, pH 7.4.
The target is the same in assay [5]. The assay is described as follows: SPR (Biacore), Kd pH 7.4 divided by Kd pH 6.0.
Assay [6] shares this target. The assay is described as follows: SPR (Biacore), immobilized shFcRn, pH 6, steady-state fit. The source holds these as a separate data set.
Assay [7] shares this target. The assay is described as follows: SPR (Biacore), immobilized shFcRn, pH 6, 2 site fit.

Bridge positions count the residues as written; N and C are the ends.

T1 sequence (P55899 24-297 limits assumed, chain 1 of 2): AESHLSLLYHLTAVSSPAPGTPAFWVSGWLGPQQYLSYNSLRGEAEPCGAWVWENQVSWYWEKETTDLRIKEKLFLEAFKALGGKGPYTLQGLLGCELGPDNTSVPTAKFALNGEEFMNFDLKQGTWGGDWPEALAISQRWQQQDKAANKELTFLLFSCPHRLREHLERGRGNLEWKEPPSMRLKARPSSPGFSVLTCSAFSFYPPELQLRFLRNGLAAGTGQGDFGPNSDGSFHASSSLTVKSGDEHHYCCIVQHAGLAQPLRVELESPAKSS
T1 sequence (P61769 21-119 limits assumed, chain 2 of 2): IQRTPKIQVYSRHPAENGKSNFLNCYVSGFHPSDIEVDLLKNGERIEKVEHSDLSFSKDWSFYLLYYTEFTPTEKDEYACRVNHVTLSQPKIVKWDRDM

In assay [1], Ac-RYFCTKWKHGWCEEVGTGGGK-NH2 (disulfide 4-12 (inferred)) [SYN1706] had a Kd of 0.9 µM.
With YMTCKWDDGFSXEYV (N-terminal acetyl; C-terminal amide; Pen (penicillamine) at position 12) [SYN1168], the Kd in assay [2] came to 1.94 µM.
For the molecule Ac-AGRYFCTKWKHGWCEEVGTG-NH2 (disulfide 6-14 (inferred)) [SYN1709], in assay [1], the affinity, expressed as Kd, was 0.68 µM.
Turning to YMTXKWDDGFSXEYV (N-terminal acetyl; C-terminal amide; Pen (penicillamine) at positions 4 and 12) [SYN1169], the affinity in assay [2], expressed as Kd, was 0.87 µM. In other words, the sub-micromolar range.
For Ac-AGRYFCTKWKHGWCEEVGTGG-NH2 (disulfide 6-14 (inferred)) [SYN1708], binding in assay [1] was characterised by a dissociation constant (Kd) of 0.57 µM.
Same read-out and setting: as for Ac-AGRYFCTKWKHGWCEEVGTGGG-NH2 (disulfide 6-14 (inferred)) [SYN1707], the figure is 0.49 µM; as for Ac-AYFCTKWKHGWCEEV-NH2 (disulfide 4-12 (inferred)) [SYN1542], 13.8 µM; as for Ac-RYFCTAWKHGWCEEV-NH2 (disulfide 4-12 (inferred)) [SYN1546], 14.2 µM.
The same measure, in the same setting: as for Ac-RAFCTKWKHGWCEEV-NH2 (disulfide 4-12 (inferred)) [SYN1543], the figure is 67.5 µM; as for Ac-RYFCTKWAHGWCEEV-NH2 (disulfide 4-12 (inferred)) [SYN1548], 9.3 µM; as for Ac-RYFCAKWKHGWCEEV-NH2 (disulfide 4-12 (inferred)) [SYN1545], 9.3 µM.
On the same count and under the same terms, as for Ac-RYFCTKWKAGWCEEV-NH2 (disulfide 4-12 (inferred)) [SYN1549], the figure is 27.4 µM; as for Ac-RYACTKWKHGWCEEV-NH2 (disulfide 4-12 (inferred)) [SYN1544], 7.7 µM; as for Ac-RYFCTKWKHAWCEEV-NH2 (disulfide 4-12 (inferred)) [SYN1550], 39.4 µM.
Take Ac-RYFCTKWKHGWCEAV-NH2 (disulfide 4-12 (inferred)) [SYN1553]: the affinity in assay [1], expressed as Kd, was 9.5 µM.

B1: SYN3258 (peptide)
peptide: Ac-RYFCTKWKHGWCEEVGTGGGRYFCTKWKHGWCEEVGT-NH2
modifications: disulfide 4-12, 24-32 (inferred)
notes: 37-mer, two SYN1753 units joined by GGG; also called Ac-[SYN1753]-GGG-[SYN1753]-CONH2
Take B1: the Kd in assay [3] amounted to 0.0036 µM.
As for Ac-CKWDDGFSCEYV-NH2 (disulfide 1-9 (inferred)) [SYN1163], in assay [2], the binding result is on record as “no binding”.
Consider Ac-VMKCWWDEEMLCEAF-NH2 (disulfide 4-12 (inferred)) [SYN1538], for which the Kd in assay [4] came to 18.9 µM; in assay [6] it was 0.267 µM. Besides, the “Kd Ratio 7.4/6.0” value in assay [5] turned out to be 71.
The like results for Ac-VMKCWWDEEMLCRAV-NH2 (disulfide 4-12 (inferred); not fully specified) [SYN1540A] were, in that order, 45.7 µM, 0.572 µM and 80.
For Ac-VMKCWWDEEMLCRYF-NH2 (disulfide 4-12 (inferred)) [SYN1539], the figures for the Kd in assay [4] and in assay [6] were 8.6 µM and 0.104 µM, respectively. In assay [5], the “Kd Ratio 7.4/6.0” value amounted to 83.
In assay [3], Ac-RYFCTKWKHGWCEEVGT-NH2 (disulfide 4-12 (inferred)) [SYN1753] displayed a Kd of 0.5 µM.
In the case of Ac-TCKWDDGFSCEYV-NH2 (disulfide 2-10 (inferred)) [SYN1162], the Kd in assay [2] came to 97.6 µM.
As for Ac-VMHCFWDEEFKCDQG-NH2 (disulfide 4-12 (inferred)) [SYN1197], the Kd was 62 µM in assay [4] and 0.74 µM in assay [6]. For the same molecule, the “Kd Ratio 7.4/6.0” value in assay [5] is 84.
Consider Ac-VMHCFWDEEFRCDYG-NH2 (disulfide 4-12 (inferred)) [SYN1381], for which the figures for the Kd in assay [4] and in assay [6] were 4.9 µM and 0.06 µM, respectively. Further, in assay [5], the “Kd Ratio 7.4/6.0” value was 82.
Take Ac-VMHCFWDEAFRCDQG-NH2 (disulfide 4-12 (inferred)) [SYN1382]: the results for the Kd in assay [4] and in assay [6] were 112 µM and 4.4 µM, respectively. Moreover, in assay [5], the “Kd Ratio 7.4/6.0” value worked out at 25.
On to Ac-YMHCFWDEEFKCDQG-NH2 (disulfide 4-12 (inferred)) [SYN1256], for which the Kd in assay [4] worked out at 50 µM; in assay [6], 0.72 µM. For the same molecule, the “Kd Ratio 7.4/6.0” value in assay [5] was determined as 69.
The matching figures for Ac-VMHCFWDEEFKCEQG-NH2 (disulfide 4-12 (inferred)) [SYN1258]: 24 µM, 0.37 µM and 65.
The matching figures for Ac-VMHCFWDEEFKCDQV-NH2 (disulfide 4-12 (inferred)) [SYN1260]: 22 µM, 0.3 µM and 73.
The matching figures for Ac-VMHCFWDEAFKCDQG-NH2 (disulfide 4-12 (inferred)) [SYN1216]: 186 µM, 3.6 µM and 52.
On to Ac-VMHCFWDEEFKCDYG-NH2 (disulfide 4-12 (inferred)) [SYN1259], for which the Kd was determined as 12 µM in assay [4] and 0.091 µM in assay [6]. In addition, in assay [5], the “Kd Ratio 7.4/6.0” value was 132.
In assay [2], Ac-YMTCKWDDGFSCE-NH2 (disulfide 4-12 (inferred)) [SYN1165] had a Kd of 40.3 µM. This lies in the double-digit micromolar range.
For Ac-AGRYFCTKWKHGWCEEVGT-NH2 (disulfide 6-14 (inferred)) [SYN1710], binding in assay [1] was characterised by a dissociation constant (Kd) of 0.59 µM.
In assay [1], Ac-AGRYFCTKWKHGWCEEVG-NH2 (disulfide 6-14 (inferred)) [SYN1711] displayed a Kd of 1.56 µM.
Ac-GRYFCTKWKHGWCEEVGTGGGK-NH2 (disulfide 5-13 (inferred)) [SYN1705]: in assay [1], binding was characterised by a dissociation constant (Kd) of 0.84 µM.
YMTXKWDDGFSCEYV (N-terminal acetyl; C-terminal amide; Pen (penicillamine) at position 4) [SYN1167] came in with a Kd in assay [2] of 2.03 µM.
In the case of Ac-AGRYFCTKWKHGWCEEV-NH2 (disulfide 6-14 (inferred)) [SYN1712], binding in assay [1] was characterised by a dissociation constant (Kd) of 4.62 µM.
Consider Ac-YMTCKWDDGFSCEY-NH2 (disulfide 4-12 (inferred)) [SYN1164], for which, in assay [2], the Kd amounted to 0.57 µM.
As for Ac-YMACKWDDGFSCEYV-NH2 (disulfide 4-12 (inferred)) [SYN1146], the results for the Kd in assay [4] and in assay [7] were 8.6 µM and 0.25 µM, respectively. The “Kd Ratio 7.4/6.0” value in assay [5] was determined as 34.4.
With Ac-YMTCKWDAGFSCEYV-NH2 (disulfide 4-12 (inferred)) [SYN1150], the Kd came to 0.4 µM in assay [4] and 0.18 µM in assay [7]. For the same molecule, the “Kd Ratio 7.4/6.0” value in assay [5] came out at 2.2.
Turning to Ac-YMTCKWDDGASCEYV-NH2 (disulfide 4-12 (inferred)) [SYN1152], the binding result in assay [2] is “no binding”.
Turning to Ac-YMTCKADDGFSCEYV-NH2 (disulfide 4-12 (inferred)) [SYN1148], the binding result in assay [2] is reported as “no binding”.

A word on the Kd: it is the concentration at which binding is half-saturated. The low end stands for higher affinity, the high end for lower affinity.
